Target: α-tubulin (human, endogenous)

B1: HDAC6 (human, endogenous) (protein)
chain: MTSTGQDSTTTRQRRSRQNPQSPPQDSSVTSKRNIKKGAVPRSIPNLAEVKKKGKMKKLGQAMEEDLIVGLQGMDLNLEAEALAGTGLVLDEQLNEFHCLWDDSFPEGPERLHAIKEQLIQEGLLDRCVSFQARFAEKEELMLVHSLEYIDLMETTQYMNEGELRVLADTYDSVYLHPNSYSCACLASGSVLRLVDAVLGAEIRNGMAIIRPPGHHAQHSLMDGYCMFNHVAVAARYAQQKHRIRRVLIVDWDVHHGQGTQFTFDQDPSVLYFSIHRYEQGRFWPHLKASNWSTTGFGQGQGYTINVPWNQVGMRDADYIAAFLHVLLPVALEFQPQLVLVAAGFDALQGDPKGEMAATPAGFAQLTHLLMGLAGGKLILSLEGGYNLRALAEGVSASLHTLLGDPCPMLESPGAPCRSAQASVSCALEALEPFWEVLVRSTETVERDNMEEDNVEESEEEGPWEPPVLPILTWPVLQSRTGLVYDQNMMNHCNLWDSHHPEVPQRILRIMCRLEELGLAGRCLTLTPRPATEAELLTCHSAEYVGHLRATEKMKTRELHRESSNFDSIYICPSTFACAQLATGAACRLVEAVLSGEVLNGAAVVRPPGHHAEQDAACGFCFFNSVAVAARHAQTISGHALRILIVDWDVHHGNGTQHMFEDDPSVLYVSLHRYDHGTFFPMGDEGASSQIGRAAGTGFTVNVAWNGPRMGDADYLAAWHRLVLPIAYEFNPELVLVSAGFDAARGDPLGGCQVSPEGYAHLTHLLMGLASGRIILILEGGYNLTSISESMAACTRSLLGDPPPLLTLPRPPLSGALASITETIQVHRRYWRSLRVMKVEDREGPSSSKLVTKKAPQPAKPRLAERMTTREKKVLEAGMGKVTSASFGEESTPGQTNSETAVVALTQDQPSEAATGGATLAQTISEAAIGGAMLGQTTSEEAVGGATPDQTTSEETVGGAILDQTTSEDAVGGATLGQTTSEEAVGGATLAQTTSEAAMEGATLDQTTSEEAPGGTELIQTPLASSTDHQTPPTSPVQGTTPQISPSTLIGSLRTLELGSESQGASESQAPGEENLLGEAAGGQDMADSMLMQGSRGLTDQAIFYAVTPLPWCPHLVAVCPIPAAGLDVTQPCGDCGTIQENWVCLSCYQVYCGRYINGHMLQHHGNSGHPLVLSYIDLSAWCYYCQAYVHHQALLDVKNIAHQNKFGEDMPHPH
amount of acetylated α-tubulin (immunoblot) after HDAC6 siRNA: only HSMCs transfected with siRNAs specific for HDAC6 displayed increased levels of acetylated α-tubulin

— patent publication US20100022624
